Data as given in US20240301046A1 (MABWELL THERAPEUTICS, published 2024).
Where two headings read alike, the source gives them in different places.

Tests used:
[1] = target: T1, HiLyte488 labelled Aβ1-42 protofibrils (UniProt P05067 672-713, HiLyte488 fluorophore on part of the peptides (labelled and unlabelled Aβ1-42 monomers mixed 1:5)); assay: cell-based or functional assay
[2] = target: T2, Aβ1-42 (rPeptide, A-1167-2) (UniProt P05067 672-713); assay: direct ELISA, coated Aβ1-42
T2 construct: domain: Aβ1-42; also called Abeta 1-42

[3] = target: T3, biotin-labelled Aβ1-40 monomer (AnaSpec, AS-61483-01) (UniProt P05067 672-711, biotin label, position not stated); assay: capture ELISA, coated antibody, biotin-Aβ1-40 monomer
T3 construct: domain: Aβ1-40; also called biotin-conjugated Aβ40 monomer; biotin-Aβ monomer
Description: The plate was incubated for 1 h at RT and washed 3 times with PBST. The plate was then incubated with HRP-conjugated streptavidin (Thermo Fisher Scientific, SNN2004) at 1:5000 diluted in 1% BSA for 20 min at RT and washed 3 times. TMB Stabilized Chromogen substrate solution (Life Technologies, SB02) was added to the plate, and the reaction was stopped by adding 1M sulfuric acid. The absorbance at 450 nm was measured in a plate reader.
(§1) A 96-well plate was coated with 5 μg/mL of antibodies overnight at RT. The plate was then treated with diluents of biotin-labelled Aβ₁₋₄₀ monomers (AnaSpec, AS-61483-01, 4-fold serial dilutions with concentrations in the range of 0-1000 nM) for 1 h at RT. The binding of biotin-labelled Aβ₁₋₄₀ monomers with immobilized antibody was detected by HRP-conjugated streptavidin and TMB, as described in Example 2.

[4] = target: T4, pyroglutamate-modified Aβ (Aβp3-42) (AnaSpec, AS-29907-01) (UniProt P05067 674-713, pyroglutamate at Aβ position 3 (the N-terminus)); assay: direct ELISA, coated Aβp3-42
T4 construct: domain: Aβp3-42; also called Abeta p3-42
Description: After 3 washes with 1× Phosphate-Buffered Saline, 0.1% Tween 20 (PBST), each plate was blocked with 1% BSA in PBS for 1 h at room temperature (RT). Diluents of Aβ antibodies (3-fold serial dilutions with concentrations in the range of 0-100 nM) were added to plates. The plate was incubated for 1 h at RT and washed 3 times. The plate was then incubated with HRP conjugated goat anti-mouse IgG (Thermo Fisher Scientific, G-21040; thermofisher.com) 1:5000 diluted in 1% BSA for 1 h at RT and washed 3 times. TMB (3,3′,5,5;-tetramethylbenzidine) Stabilized Chromogen substrate solution (Life Technologies (Thermo Fisher Scientific) SB02) was added to the plate, and the reaction was stopped by adding 1M sulfuric acid. The absorbance at 450 nm was measured in a plate reader.
(§2) Direct ELISA was used to test each antibody's affinity for Aβ₁₋₄₂ and pyroglutamate-modified Aβ (Aβₚ₃₋₄₂). Plates were coated with 0.5 μM of Aβ₁₋₄₂ (rPeptide, A-1167-2) or Aβₚ₃₋₄₂ (AnaSpec, AS-29907-01) for 2 h at 4° C. Diluents of antibodies (3-fold serial dilutions with concentrations in the range of 0-100 nM) were added to the plate for 1 h at RT. Binding of antibody to immobilized Aβ on each plate was detected by HRP-labeled secondary antibody and TMB substrate, as described in Example 2.

[5] = target: T4, pyroglutamate-modified Aβ (Aβp3-42) …; assay: direct ELISA, coated Aβp3-42; remark: listed apart in the source
Description: as §2

[6] = target: T2, Aβ1-42 (rPeptide, A-1167-2); assay: direct ELISA, coated Aβ1-42; remark: listed apart in the source
[7] = target: T1, HiLyte488 labelled Aβ1-42 protofibrils; assay: cell-based or functional assay; remark: listed apart in the source
[8] = target: T1, HiLyte488 labelled Aβ1-42 protofibrils; assay: cell-based or functional assay; remark: listed apart in the source
[9] = target: T2, Aβ1-42 (rPeptide, A-1167-2); assay: direct ELISA, coated Aβ1-42; remark: listed apart in the source
[10] = target: T4, pyroglutamate-modified Aβ (Aβp3-42) …; assay: direct ELISA, coated Aβp3-42; remark: listed apart in the source
[11] = target: T2, Aβ1-42 (rPeptide, A-1167-2); assay: direct ELISA, coated Aβ1-42; remark: listed apart in the source
Description: as §2

[12] = target: T3, biotin-labelled Aβ1-40 monomer …; assay: capture ELISA, coated antibody, biotin-Aβ1-40 monomer; remark: listed apart in the source
[13] = target: T3, biotin-labelled Aβ1-40 monomer …; assay: as above; remark: listed apart in the source
Description: as §1

[14] = target: T5, Aβ1-42 protofibril (UniProt P05067 672-713); assay: ratio of competitive ELISA IC50s, monomer as reference
T5 construct: domain: Aβ1-42; soluble multimer of Aβ1-42; also called Aβ protofibril; Aβ protofibrils
Text: The binding was detected by HRP-labeled secondary antibody and TMB substrate, as described in Example 2.

ADCP (RFU) [1] | EC50 [2] | EC50 [3] | EC50 [4] | EC50 [5] | EC50 [6] | ADCP (RFU) [7] | relative ADCP [8] | EC50 [9] | EC50 [10] | EC50 [11] | EC50 [12] | EC50 [13] | ratio of IC50 monomer to IC50 protofibril [14] | Binder
375000 RFU | 0.057 nM | 59 nM | 19.4 nM | – | – | – | – | – | – | – | – | – | – | 17P04A(mIgG2a) (antibody, chimeric: human F(ab')2, mouse IgG2a CH2-CH3, recombinant) heavy: EVQLVESGGGLVKPGGSLRLSCAASGFTLSSFSMNWVRQAPGKGLEWVSSISSRRTYIYYADSAKGRFTFSRDNAKNSLYLQMNSLRAEDSAVYYCARGGYIGSPNAYDIWGQGTMVTVSSASTKGPSVFPLAPCSRSTSESTAALGCLVKDYFPEPVTVSWNSGALTSGVHTFPAVLQSSGLYSLSSVVTVPSSNFGTQTYTCNVDHKPSNTKVDKTVERKCPPCKCPAPNLLGGPSVFIFPPKIKDVLMISLSPIVTCVVVDVSEDDPDVQISWFVNNVEVHTAQTQTHREDYNSTLRVVSALPIQHQDWMSGKEFKCKVNNKDLPAPIERTISKPKGSVRAPQVYVLPPPEEEMTKKQVTLTCMVTDFMPEDIYVEWTNNGKTELNYKNTEPVLDSDGSYFMYSKLRVEKKNWVERNSYSCSVVHEGLHNHHTTKSFSRTPGK light: QTVVTQEPSLTVSPGGTVTLTCASSTGAVTSDYYPNWFQQKPGQAPRALIYSASTKHSWTPARFSGSLLGGKAALTLSGVQPEDEADYYCLLYYGGAWVFGGGTKLTVLGQPKAAPSVTLFPPSSEELQANKATLVCLISDFYPGAVTVAWKADSSPVKAGVETTTPSKQSNNKYAASSYLSLTPEQWKSHRSYSCQVTHEGSTVEKTVAPTECS
328000 RFU | 0.045 nM | 35.2 nM | 203 nM | > 50 nM | < 0.1 nM | 284000 RFU | 0.79 relative to ADCP response of rfmAb-1 | 0.045 nM | 203 nM | 0.045 nM | 35.2 nM | 35.2 nM | – | 17P04A (mIgG1) (antibody, V domains shown, chimeric: fully human F(ab')2, mouse IgG1 CH2-CH3; also called 17P64A; 17P4A) VH: EVQLVESGGGLVKPGGSLRLSCAASGFTLSSFSMNWVRQAPGKGLEWVSSISSRRTYIYYADSAKGRFTFSRDNAKNSLYLQMNSLRAEDSAVYYCARGGYIGSPNAYDIWGQGTMVTVSS VL: QTVVTQEPSLTVSPGGTVTLTCASSTGAVTSDYYPNWFQQKPGQAPRALIYSASTKHSWTPARFSGSLLGGKAALTLSGVQPEDEADYYCLLYYGGAWVFGGGTKLTVL
673000 RFU | 0.062 nM | 67 nM | 57.6 nM | > 50 nM | < 0.1 nM | 480000 RFU | 1.36 relative to ADCP response of rfmAb-1 | 0.062 nM | 57.6 nM | 0.062 nM | 67 nM | 67 nM | – | 18P01A (mIgG1) (antibody, V domains shown, chimeric: fully human F(ab')2 (human VH, VL, CH1, CL), mouse IgG1 CH2-CH3; also called Chimeric mouse 18P01A (mlgG1); Original 18P01A (mlgG1)) VH: EVQLVESGGGLVQPGGSLKLSCAVSGFTFSGSAMHWVRQASGKGLEWVGRIRSKANSYATAYAASVKGRFTISRDDSKNTAFLQMNSLKTEDTAVYYCTSHAPNFDAFDIWGQGTMVTVSS VL: QSVLTQPPSVSAAPGQKVTISCSGSSSNIGNHYVSWYQQLPGTAPKFFIYDNSKRPSGIPDRFSGSKSGTSATLGITGLQTGDEADYYCGTWDSSLSTYVFGTGTKVTVL
– | – | – | – | > 50 nM | < 0.1 nM | 334000 RFU | 1.05 relative to ADCP response of rfmAb-1 | 0.05 nM | 336 nM | 0.05 nM | 2.57 nM | 2.57 nM | > 300 fold | 20O07A (mIgG1) (antibody, V domains shown, chimeric: fully human F(ab')2, mouse IgG1 CH2-CH3; also called Chimeric mouse 20O07A (mlgG1)) VH: EVQLVESGGGLVQPGGSLKLSCAVSGFTFSGSAIHWVRQASGKGLEWVGRIRSKVNSYATVYAASVKGRFTISRDDSKNTAFLQMNSLKTEDTAVYYCTSHAPIFDAFDIWGQGTMVTVSS VL: QSVLTQPPSVSAAPGQKVTISCSGSSSNIGNHYVSWYQQLPGTAPKFLIYDNSKRPSGIPDRFSGSKSGTSATLGITGLQTGDEADYYCGTWDSSLSTYFFGTGTKVTVL
